Laboratory results published in ChEMBL document CHEMBL5143569.

Experiments:
[1] = substrate: CC1(CN)CCN(c2cnc(Sc3cccc(Cl)c3Cl)c(N)n2)CC1; conditions: Homo sapiens; filed as negative allosteric modulator; dose 0.032 µM
Description: Non-competitive inhibition of wild-type human SHP2 (1 to 535 residues) using DiFMUP as substrate assessed as Km at 0.032 uM measured by Lineweaver-Burk plot analysis

[2] = substrate: CC1(CN)CCN(c2cnc(Sc3cccc(Cl)c3Cl)c(N)n2)CC1; conditions: Homo sapiens; filed as negative allosteric modulator; dose 0.08 µM
Description: Non-competitive inhibition of wild-type human SHP2 (1 to 535 residues) using DiFMUP as substrate assessed as Km at 0.08 uM measured by Lineweaver-Burk plot analysis

[3] = substrate: CC1(CN)CCN(c2cnc(Sc3cccc(Cl)c3Cl)c(N)n2)CC1; conditions: Homo sapiens; filed as negative allosteric modulator; dose 0.2 µM

B1: Tyrosine-protein phosphatase non-receptor type 11 (Homo sapiens), Q06124 (protein)
chain: MTSRRWFHPNITGVEAENLLLTRGVDGSFLARPSKSNPGDFTLSVRRNGAVTHIKIQNTGDYYDLYGGEKFATLAELVQYYMEHHGQLKEKNGDVIELKYPLNCADPTSERWFHGHLSGKEAEKLLTEKGKHGSFLVRESQSHPGDFVLSVRTGDDKGESNDGKSKVTHVMIRCQELKYDVGGGERFDSLTDLVEHYKKNPMVETLGTVLQLKQPLNTTRINAAEIESRVRELSKLAETTDKVKQGFWEEFETLQQQECKLLYSRKEGQRQENKNKNRYKNILPFDHTRVVLHDGDPNEPVSDYINANIIMPEFETKCNNSKPKKSYIATQGCLQNTVNDFWRMVFQENSRVIVMTTKEVERGKSKCVKYWPDEYALKEYGVMRVRNVKESAAHDYTLRELKLSKVGQGNTERTVWQYHFRTWPDHGVPSDPGGVLDFLEEVHHKQESIMDAGPVVVHCSAGIGRTGTFIVIDILIDIIREKGVDCDIDVPKTIQMVRSQRSGMVQTEAQYRFIYMAVQHYIETLQRRIEEEQKSKRKGHEYTNIKYSLADQTSGDQSPLPPCTPTPPCAEMREDSARVYENVGLMQQQKSFR
Km [1]: 95.4 µM | Km [2]: 103 µM | Km [3]: 142 µM
